Results published in patent publication US20250073202A1, “METHODS TO TREAT RENAL DISORDERS USING CALCIUM CHANNEL INHIBITORS” (The Trustees of Indiana University, priority 2018, published 2025).

Columns and labels:
[1] = system: AKI-primed CD4+ cells; experiment: In vitro stimulation of AKI-primed kidney CD4+ cells with Ang II and elevated Na+, IL17 response; assay type: cell-based, rat; conditions: inhibitor 10 μM; Ang II 10^-7 M and 170 mM Na+; 12-14 hours; cells 7 days post I/R
Experimental: Total RNA was obtained from kidney using Trizol and the Zymogen RNA extraction kit and cDNA was prepared using MMLV enzyme (Invitrogen, Carlsburg, CA). Quantitative real time PCR (qPCR) using gene specific primers was performed using ABI 7500 (Applied Biosystems, Foster City, CA). mRNA values were calculated using 2^−ΔΔCt. Specific primers sequences for IL-6 (catalog #Rn01410330_m1), Kim-1 (#Rn00597703_m1) and IL17 (Rn01757168_m1) were purchased from ThermoFisher (Waltham, MA).
(§1) To evaluate protein expression of IL17 or Orai1, Orai2 or Orai3, cells were restimulated with PMA and ionomycin for 6 hours in the presence of monensin (Golgistop, 1 μg·ml, BD Biosciences) permeabilized with saponin ([…]) and stained with relevant antibody. Cells were scanned using flow cytometry (FACSCalibur, BD Biosciences, San Jose, CA) and scans were analyzed using Flowjo software (Tree Star, Ashland, OR).
CD4+T cells were isolated using the MACS Pan-T cell microbead separation kit (Miltenyl, Glabach, Germany). T cells were stimulated with plate bound anti-CD3 (precoated with 2 μg/mL) and soluble anti-CD28 (1 μg/mL). Cells (2.5×10^5 in 0.25 ml) were incubated 12-14 hours at 37° C. in RPMI medium supplemented with 10% FBS (Invitrogen) in a 48-well plate. Cells were challenged with Ang II (Sigma, 10^−7M) and raising the extracellular Na+ from 140 mM to 170 mM, using a 1 M NaCl solution. Calcium channel inhibitors 2ABP (10 μM, Sigma) AnCoA4 (10 μM, Millipore, Burlington, MA) and YM58483/BTP2 (10 μM) were included to evaluate effects on IL-17.

[2] = system: AKI-primed CD4+ cells; experiment: Fura-2 imaging of intracellular Ca2+ responses in AKI-primed CD4+ cells; assay type: cell-based, rat; conditions: superfusate with Ang II and elevated Na+; to levels similar to sham
Experimental: To assess Ca^2+ responses, fura2 imaging was performed. Briefly, isolated CD4+ T cells were loaded with fura-2AM (2.5 μM, Sigma, St. Louis, MO) for 45 min, washed, placed on poly-lysine (Sigma) coated coverslips and placed in a superfusion chamber with physiological salt solution (PSS) containing 2 mM Ca^2+. The chamber was mounted on an inverted epifluorescence microscope and signal measured with alternating excitation at 340 and 380 nm and emission at 510 nm using the InCa^2+-imaging system (Intracellular Imaging Systems, Cincinnati, OH). Data were acquired at 1.5 Hz and representative tracings were smoothed to the 10 nearest neighbor points using GraphPad Prism. For analysis, an increase in signal intensity of >1 standard deviation from baseline was considered a positive response. Frequency of responding cells was determined from an average 53±19 cells for each animal.

[3] = system: human blood CD4+ cells; experiment: In vitro stimulation of human blood CD4+ cells from AKI patients with elevated sodium, IL17 response; assay type: cell-based; conditions: 170 mM Na+, overnight (~12 hours)
Experimental: For in vitro stimulation of human blood cells, primary T cells were isolated from fresh blood using Straight whole blood CD4 kit from Miltneyli Biotech (Miltenyli, San Diego, CA) according to manufactures' protocol. CD4+T cells were plated at a density of 1×10^6 cells/mL in RPMI medium supplemented with FBS. Cells were stimulated with human anti-CD3/CD28 dynabeads (Gibco; Catalogue no 11161D) along with labeled treatment overnight (˜12 hours). T cells were harvested and incubated with monensin for 6 hours, prior to staining for IL-17 (Table 4).

[4] = system: renal ischemia reperfusion injury; experiment: Bilateral renal ischemia/reperfusion (I/R) injury in rats, 24 hours after reperfusion (Study II); assay type: in vivo, rat
Experimental: All studies used male Sprague-Dawley rats (250-300 g) that were purchased from Envigo (Indianapolis, IN). Rats were anesthetized with a cocktail of ketamine (100 mg·kg^−1, KetoVed, Vedco Inc, St. Joseph, MO) and xylazine (50 mg·kg^−1, AnaSed, Lloyd Inc, Shenandoah IA). Rats were placed on a heated surgical table to maintain body temperature. A midline incision and either unilateral (left) or bilateral renal ischemia (as indicated in Results) was induced by applying micro-aneurism clamps on the renal pedicles for a period of 40 min. Re-establishment of perfusion was verified by visual examination following removal of the clamps. Rats were provided post-operative analgesia using buprenorphine-SR (1 mg·kg^−1).
Rats were allowed to recover for various periods of time as described in the Results. In Study I, lymphocytes were studied in vitro after recovery for either 2 or 7 days following I/R or sham surgery for evaluation of function in vitro or for FACS analysis. In Study II, the effect of SOCE on kidney injury was studied with the inhibitor YM58483/BPT2 (N-[4-[3,5-Bis(trifluoromethyl)-1H-pyrazol-1-yl]phenyl]-4-methyl-1,2,3-thiadiazole-5-carboxamide; Tocris/Bio-Techne Minneapolis, MN). Rats were pretreated p.o. 2-3 hours prior to surgery with YM58483.BPT2 (1 mg·kg^−1) in sugar-free chocolate pudding following dilution in 100% EtOH, at, a dose previously shown to affect T cell activation in rats. In some experiments, rats were also treated with the IL17Rc (150 ng/day i.p; R&D Systems). In addition, one experiment utilized a model of rhabdomyolysis, induced by injection of 50% glycerol (10 ml/kg) into the hindlimb muscle of rats following 16 hours of water restriction.
To measure creatinine, tail blood was collected in heparin containing tubes and centrifuged to collect plasma. Plasma creatinine was measured using a Pointe Scientific Analyzer and Creatinine Assay reagents using methods outlined by the manufacturer (Pointe Scientific, Canton MI). Urine was collected for 24 hours by placing rats in metabolic cages and urine volume was determined gravimetrically. Urine creatinine was measured using a colorimetric assay adopted for microplate readers. Creatinine clearance was measured using UCr*V/PCr. […]
Freshly harvested kidneys were minced and digested in liberase (2 μg/ml. Roche, Indianapolis IN) for 15 min at 37° C. using Gentle MACs (Miltenyli, San Diego, CA). The digested tissue was filtered through a 100-μm mesh and washed with RPMI containing 10% fetal bovine serum (Invitrogen). Mononuclear cells were isolated using Percol (Sigma) density gradient centrifugation.
as §1
The effect of SOCE on early ischemic kidney injury was studied with the inhibitor YM58483/BPT2 (N-[4-[3,5-Bis(trifluoromethyl)-1 H-pyrazol-1-yl]phenyl]-4-methyl-1,2,3-thiadiazole-5-carboxamide; Tocris/Bio-Techne Minneapolis, MN). Rats were pretreated 2-3 hours prior to surgery, p.o. in sugar-free chocolate pudding following dilution in 100% EtOH, at 1 mg·kg^−1, a dose previously shown affect T cell activation in rats. To evaluate if SOCE influences Th17 cells in AKI, rats were fed YM58483/BPT2 approximately 2 hours prior to […] and reperfusion. […] YM58483/2BPT2 also attenuated the infiltration of total CD4+ and CD8+ T-cells, B-cells, and dendritic cells following I/R (FIGS. 3C, 3D, 3E, and 3F).

[5] = 24 hours following ischemia reperfusion, mean ± S.E.

| Molecule | increase in IL17+ cells (IL17 protein, FACS) [1] | increase of IL17 mRNA [1] | percentage of Ca2+-responding cells [2] | IL17 response to elevated extracellular sodium [3] | infiltration of total CD4+ T-cells in kidney (vs vehicle) ([4]; 24 hours following I/R) | kidney CD4+/IL17+ cells (vs vehicle) ([4]; 24 hours following I/R) | CD4+ renal lymphocyte content [4, 5] | CD4+/IL-17+ cells [4, 5] | CD8+ cells renal lymphocyte content [4, 5] | CD8+IL-17+ cells [4, 5] | Serum Creatinine [4, 5] | Total IL-17+ cells [4, 5] |
| --- | --- | --- | --- | --- | --- | --- | --- | --- | --- | --- | --- | --- |
| NCCOB(c1ccccc1)c1ccccc1 [2-ABP, 2-aminoethoxydiphenyl borate] | completely blocked | completely blocked |  |  |  |  |  |  |  |  |  |  |
| COc1cc2c(cc1-c1coc3c4c(ccc3c1=O)OC(C)(C)C=C4)OCO2 [AnCoA4] | completely blocked | completely blocked | significantly attenuated | inhibited |  |  |  |  |  |  |  |  |
| IL-17Rc: the IL17Rc receptor antagonist (R&D Systems), 150 ng/day i.p. (protein, UniProt Q8NAC3 21-538, looked up, extracellular domain) extracellular domain: LERLVGPQDATHCSPVSLEPWGDEERLRVQFLAQQSLSLAPVTAATARTALSGLSGADGRREERGRGKSWVCLSLGGSGNTEPQKKGLSCRLWDSDILCLPGDIVPAPGPVLAPTHLQTELVLRCQKETDCDLCLRVAVHLAVHGHWEEPEDEEKFGGAADSGVEEPRNASLQAQVVLSFQAYPTARCVLLEVQVPAALVQFGQSVGSVVYDCFEAALGSEVRIWSYTQPRYEKELNHTQQLPDCRGLEVWNSIPSCWALPWLNVSADGDNVHLVLNVSEEQHFGLSLYWNQVQGPPKPRWHKNLTGPQIITLNHTDLVPCLCIQVWPLEPDSVRTNICPFREDPRAHQNLWQAARLQLLTLQSWLLDAPCSLPAEAALCWRAPGGDPCQPLVPPLSWENVTVDKVLEFPLLKGHPNLCVQVNSSEKLQLQECLWADSLGPLKDDVLLLETRGPQDNRSLCALEPSGCTSLPSKASTRAARLGEYLLQDLQSGQCLQLWDDDLGALWACPMDKYIHKR |  |  |  |  | significantly reduced | significantly reduced | 19229 ± 3175 cells/gram | 1567 ± 294 cells/gram | 4356 ± 559 cells/gram | 251 ± 118 cells/gram | 3.96 ± 1.2 mg/dL | 8447 ± 1753 cells/gram |
